In patent publication US20190241654A1 (published 2019):
Substitutions are numbered along the chain they refer to. Where “and” joins values, the source holds several entries; their conditions need not be identical. Equal values may be shown once. Values belong to the binder of their own block, whether it stands above or below them.

Target: T1, recombinant extracellular domain of CD47 (UniProt Q08722 19-139, limits assumed)
T1 construct: extracellular domain; Analyte flowed over the captured antibodies in SPR; also called CD47-ECD
T1 sequence (Q08722 19-139 limits assumed): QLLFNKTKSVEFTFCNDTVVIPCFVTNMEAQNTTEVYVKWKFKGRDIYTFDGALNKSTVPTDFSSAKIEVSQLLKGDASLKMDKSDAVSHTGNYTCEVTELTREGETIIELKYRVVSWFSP
Experiment: SPR; antibody captured on anti-human Fc, CD47-ECD flowed 0-100 nM; 1:1 Langmuir
Description: The binding kinetics of anti-CD47 antibodies to the recombinant extracellular domain of CD47 were determined by using surface Plasmon resonance (SPR, MASS-1, Sierra Sensors; T200, Biacore, GE Healthcare Life Sciences). Anti-human Fc (P/N: BR-1008-39 (GE Healthcare Life Sciences)) was immobilized on a High Capacity Amine chip (P/N: SPR-AS-HCA, Sierra sensors) or CM5-S Chip (GE Healthcare Life Sciences). CD47 antibodies were captured on Human IgG FC and CD47-ECD was flowed over the surface at various concentrations ranging from zero (for double referencing) to 100 nM. In order to determine KD's, antibodies were ranked using a 1:1 Langmuir model.

Kd: 0.564 nM
koff: 0.00577 s⁻¹
kon: 1.02e+07 M⁻¹ s⁻¹
B1: Ab1119/Ab480 (antibody, V domains shown)
VH: QMQLVQSGAEVKKPGSSVKVSCKASGFNIKDYYLHWVRQAPGKGLEWMGWIDPDQGDTEYAQKFQGRVTITRDRSTSTAYMELRSLRAEDTAVYYCNAAYGSSSYPMDYWGQGTLVTVSS
VL: NIQMTQSPSSLSASVGDRVTITCRASQDIHRYLSWFQQKPGKVPKHLIYRANRLVSGVPSRFSGSGSGTEFTLTISSLQPEDFATYYCLQYDEFPYTFGGGTKVEIK
notes: Variant of AbParental; also called LC Ab1119 / HC Ab480

Kd: 1.32 nM
koff: 0.00434 s⁻¹
kon: 3.29e+06 M⁻¹ s⁻¹
B2: Ab495/Ab480 (antibody, V domains shown)
VH: B1 VH
VL: B1 VL with R24K, F36Y, V43A
notes: also called LC Ab495 / HC Ab480

Kd: 0.556 nM and 0.529 nM
koff: 0.00571 s⁻¹ and 0.00552 s⁻¹
kon: 1.03e+07 M⁻¹ s⁻¹ and 1.04e+07 M⁻¹ s⁻¹
B3: Ab1119/Ab387 (antibody, V domains shown)
VH: B1 VH with A88S
VL: B1 VL
notes: Variant of AbParental; also called LC Ab1119 / HC Ab387

Kd: 4.76 nM
koff: 0.0106 s⁻¹
kon: 2.22e+06 M⁻¹ s⁻¹
B4: Ab356/Ab1127 (antibody, V domains shown)
VH: B1 VH with L115T
VL: B1 VL with A51E, N52S, L54F, S56D
notes: FR and CDR L2 variant; Label printed HC first; r460 used; also called HC Ab356 / LC Ab1127

Kd: 0.635 nM and 0.599 nM
koff: 0.00647 s⁻¹ and 0.0059 s⁻¹
kon: 1.02e+07 M⁻¹ s⁻¹ and 9.85e+06 M⁻¹ s⁻¹
B5: Ab1119/Ab356 (antibody, V domains shown)
VH: B1 VH with L115T
VL: B1 VL
notes: Variant of AbParental; also called LC Ab1119 / HC Ab356

Kd: 1.14 nM
koff: 0.00303 s⁻¹
kon: 2.67e+06 M⁻¹ s⁻¹
B6: Ab480/Ab1121 (antibody, V domains shown)
VH: B1 VH
VL: B1 VL with A51Y, N52I, L54F, S56D
notes: FR and CDR L2 variant; Label printed HC first; r442 used; also called HC Ab480 / LC Ab1121

Kd: 1.02 nM
koff: 0.00274 s⁻¹
kon: 2.69e+06 M⁻¹ s⁻¹
B7: Ab356/Ab1120 (antibody, V domains shown)
VH: B1 VH with L115T
VL: B1 VL with A51Y, N52V, L54F, S56D
notes: FR and CDR L2 variant; also called HC Ab356 / LC Ab1120

Kd: 1.05 nM
koff: 0.00238 s⁻¹
kon: 2.28e+06 M⁻¹ s⁻¹
B8: Ab480/Ab1120 (antibody, V domains shown)
VH: B1 VH
VL: B1 VL with A51Y, N52V, L54F, S56D
notes: FR and CDR L2 variant; Label printed HC first although the head says LC/HC; also called HC Ab480 / LC Ab1120

Kd: 1.08 nM
koff: 0.00272 s⁻¹
kon: 2.53e+06 M⁻¹ s⁻¹
B9: Ab356/Ab1121 (antibody, V domains shown)
VH: B1 VH with L115T
VL: B1 VL with A51Y, N52I, L54F, S56D
notes: FR and CDR L2 variant; Label printed HC first; the entry in numeric order (r442) is used; also called HC Ab356 / LC Ab1121

Kd: 1.36 nM
koff: 0.00426 s⁻¹
kon: 3.13e+06 M⁻¹ s⁻¹
B10: Ab495/Ab356 (antibody, V domains shown)
VH: B1 VH with L115T
VL: B1 VL with R24K, F36Y, V43A
notes: also called LC Ab495 / HC Ab356

Kd: 0.553 nM
koff: 0.00549 s⁻¹
kon: 9.93e+06 M⁻¹ s⁻¹
B11: Ab482/Ab387 (antibody, V domains shown)
VH: B1 VH with A88S
VL: B1 VL with L11M, R24K
notes: FR variant of AbParental; also called LC Ab482 / HC Ab387

Kd: 4.68 nM
koff: 0.0109 s⁻¹
kon: 2.33e+06 M⁻¹ s⁻¹
B12: Ab480/Ab1122 (antibody, V domains shown)
VH: B1 VH
VL: B1 VL with A51Y, N52E, L54F, S56D
notes: FR and CDR L2 variant; Label printed HC first; r445 used; also called HC Ab480 / LC Ab1122

Kd: 0.562 nM
koff: 0.00583 s⁻¹
kon: 1.04e+07 M⁻¹ s⁻¹
B13: Ab1119/Ab170 (antibody, V domains shown)
VH: B1 VH with A88S, L115T
VL: B1 VL
notes: Variant of AbParental; also called LC Ab1119 / HC Ab170

Kd: 77.9 nM
koff: 0.00411 s⁻¹
kon: 22800 M⁻¹ s⁻¹
B14: Ab356/Ab1122 (antibody, V domains shown)
VH: B1 VH with L115T
VL: B1 VL with A51Y, N52E, L54F, S56D
notes: FR and CDR L2 variant; Label printed HC first; r445 used; also called HC Ab356 / LC Ab1122

Kd: 2.42 nM
koff: 0.00622 s⁻¹
kon: 2.57e+06 M⁻¹ s⁻¹
B15: Ab480/Ab1127 (antibody, V domains shown)
VH: B1 VH
VL: B1 VL with A51E, N52S, L54F, S56D
notes: FR and CDR L2 variant; Label printed HC first; r460 used; also called HC Ab480 / LC Ab1127
